Experiment: yeast display, Sf9 membrane polyspecificity reagent, FACS + sequencing; frameworks hold sequencing errors
Outline: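 Galactose-induced (36–48 hours) yeast carrying a synthetic nanobody display library were exposed to 10% biotinylated, detergent-solubilized Sf9 membrane reagent at 4 °C for 1 hour. FACS followed streptavidin microbead enrichment, using low and high (top ~1%) gates for expression (anti-HA) and reagent binding (streptavidin). Colony PCR, MiSeq 2 × 250 sequencing and CDR-length filtering followed. Labels for polyreactivity reflect the gate of origin.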

Sequence: QVQLVESGGGLVQAGGSLRLSCAASGNIFPMNAMGWYIEAPGKERELVAAISYSGTSTYYADSVKGRFTISRDKAKNTVYLQMNSLKPEDTAVYYCAARVQRLNLGDYNYWGQGTQVTVSS
- polyreactivity (PSR sort gate): low polyreactivity

Sequence: QVQLVESGGGLVQAGGSLRLSCDASGFTFSAYAMGWYRQAPGKERELVAAISTRGGSTRYADSVKGRFTISRDNAKNTVYLQMNSLKPEDTAVYYCADDTRSFYRYDYWGQGTQVTVSS
- polyreactivity (PSR sort gate): high polyreactivity

Sequence: QVQLVESGGGLVQAGGSLRLSCAASGFNFDGYAMGWYRQAPGKERELVAAITYSGGSTYYADSVKGRFTISRDNAKNTVYLQMNSLKPEDTAVYYCAAESYVYGGSDYDYWGQGTQVTVSS
- polyreactivity (PSR sort gate): low polyreactivity

Sequence: QVQLVESGGGLVQAGGSLRLSCAASGRIFVYNAMGWYRQAPGKERELVAAISWSGGSTYYADSVKGRFTISRDNAKNTVYLQMNSLKPEDTAVYYCAAYYSARRGHYRNSYGYDYWGQGTQVTVSS
- polyreactivity (PSR sort gate): high polyreactivity

Sequence: QVQLVESGGGLVQAGGSLRLSCAASVRIFPHKAMGWYIQAPGKERELVAAISSNGGSTYYADSVKGRFTISRDNAKNTVYLQMNSLKPEDTAVYYCAKYRYFAGDGDYWGQGTQVTVSS
- polyreactivity (PSR sort gate): low polyreactivity

Sequence: QVQLVESGGGLVQAGCSLRLSCAASGLIFLPYAMGWYIQAPGKERELVAAINFSTGSTHYADSVKGRFTISRDNAKNTVFLQMNSLKPEDTAVYYCAVYTSQIYGYWGQGTQVNVSS
- polyreactivity (PSR sort gate): high polyreactivity

Sequence: QVQLVESGGGLVQAGGSLRLSCDASGSIFDPYAMGWYRQAPGKERELVAGISFSGGRTYYADSVKGRFTISRDNAKNTVYLQMNSLKPEDTAVYYCKKLLTQGAYPYYYWGQGTQVTVSS
- polyreactivity (PSR sort gate): high polyreactivity

Sequence: QVQLVESGGGLVQAGRSLRLSCAASGRTFYHYAMGWYRQAPGKERELVAAIDWSTASTYYADSVKGRFTISRDNAKNTVYLQMNSLIQEDTAVYYCATDSAILINFVLYDYWGQGTQVTVSS
- polyreactivity (PSR sort gate): low polyreactivity

Sequence: QVQLVESGGGLVQAGGSLRLSCAASGSIITWYTMGWYRQATGKERELVASISSGGTTKYADSVKGRFTISRDNAKNTVYLQMNCLKPEDTAVYYCAAEYIAYYGTGTYYGLDYWGQGTQVTVSS
- polyreactivity (PSR sort gate): low polyreactivity

Sequence: QVHLVESGGGLVQAGGSLRLSCPASGFTFDNYAMGWYRQPPGKERELVAAINWSGGRTYYADSVKGRFTISRDNAKNTVYLQMNSLKPEDTAVYYCGVPGYVRMDYWGQGTQVTVSS
- polyreactivity (PSR sort gate): high polyreactivity

Sequence: QVQLVESGGGLVQAGGSLRLSCAASGSTSKSYTMGWYRQAPGKERELVAAISYSGVSTYYADSVKGRFTISRDNAKNTVYLQMNSLKPEDTAVYDGAADWVPRQYPGRGGYWGQGTQVTVSS
- polyreactivity (PSR sort gate): high polyreactivity

Sequence: QVQLVESGGGLVQAGGSLRLSCAASGSIFRGYAMGWYRQAPGKERELVAAITFSGGSTYADSVKGRFTISRDNAKNTVYFQMNSLKPEDTAVYDCAAKRTGHNWFTVYPYYSWGQGTQVTVSS
- polyreactivity (PSR sort gate): low polyreactivity

Sequence: QVQLVESGGGLVQAGGSLRLSCAASGIIFRVNTIGWDRQAPGKEREMVARITGAGNTYYADSVNGRCTISRDNAKNSVYLQMNSLKPKDTAVYYCAVREFDKRRVIYYYWGQGTQVTVLS
- polyreactivity (PSR sort gate): high polyreactivity

Sequence: QVQLVESGGGLVQAGGSLRLSCAASGSTFLNYAMGWYRQAPGKERELVAAISGSTTRTYYADSVKGRFTISRDNAKNTVYLQMNSLKPEDTAVYYCARYSLYTGYRRYPLDYDYWGQGTQVTVSS
- polyreactivity (PSR sort gate): high polyreactivity

Sequence: QVQLVESGGGLVQAGGSLRLSCAASGFTFRSNAMGWYRQAPGKERELVAAISSNGGRTYYADSVKGRFTISRDNAKNTVYLQMNSLKPEDTAVYYCAARGGYSQKRHDSWGQGTQVTVSS
- polyreactivity (PSR sort gate): high polyreactivity

Sequence: QVQLVESGGGLVQAGGSLRLSCAASGRILVVNAMGWYRQAPRKERELVAAISTTGGRTYYADSVKGRFTISRDNAKNTVYLQMKSLKPEDTAVYYCSKDDGRFGRTHEHDYWGHGTQVTVSS
- polyreactivity (PSR sort gate): high polyreactivity

Sequence: QVQLVESGGGLVQAGGSLRLSCAASGRIFGYYAMGWYRPAPGKERELVAGITSGGITNYADSVKGRFTISRDNAKNTVYLQMNSLKPEDTAVYYCAARSGYYYRVKFYYWGQGTQVSVSS
- polyreactivity (PSR sort gate): high polyreactivity

Reference: the nanobody polyreactivity screen of Harvey et al. (2022)
